Measured values published in US20110262430A1 (published 2011).

Key:
[1] = biological target: T1, Cynomolgus macaque monkey IGF-1R-Fc fusion protein (cynomolgus macaque monkey (Macaca …)); assay: binding ELISA: plate coated with recombinant cynomolgus macaque IGF-1R-Fc, antibody titrated, anti-mouse Ig-HRP detection, OD 450nm
T1 construct: The entry begins with the native signal peptide; also called recombinant Cynomolgus macaque IGF-1R; recombinant cynomolgus macaque IGF-1R
Experimental: (§1) 96 well ELISA plates were coated overnight with recombinant Cynomolgus macaque IGF-1R (see Example 4) at 1-2 μg/ml and blocked with 4% BSA/PBS. Purified anti-hIGF-1R antibodies were added and incubated for 1 hour at room temperature. The plates were washed in TBST and HRP conjugated anti mouse Ig (DAKO #P0260) was added to each well at 0.6-1.0 μg/ml. Plates were incubated for 1 hour at room temperature, washed with TBST and developed with OPD substrate (Sigma P9187) or TMB substrate (Sigma T8665). […] For antibodies containing a human IgG1/Cκ constant region, the HRP conjugated anti mouse Ig detection antibody was substituted with a goat anti-human Kappa Light Chains peroxidase conjugate (Sigma, A7164)

[2] = biological target: T2, His-tagged FcγRIIIa (F variant) extracellular domain (Heterogeneously glycosylated.); assay: Biacore T100, His-tagged FcγRIIIa captured on anti-polyhistidine antibody, antibody injected 2-512 nM, 25°C, Bivalent model
T2 construct: also called FcγRIIIa (Phe); FcγRIIIa (Phe variant)
T2 sequence (chain, as listed by the source mutant limits assumed): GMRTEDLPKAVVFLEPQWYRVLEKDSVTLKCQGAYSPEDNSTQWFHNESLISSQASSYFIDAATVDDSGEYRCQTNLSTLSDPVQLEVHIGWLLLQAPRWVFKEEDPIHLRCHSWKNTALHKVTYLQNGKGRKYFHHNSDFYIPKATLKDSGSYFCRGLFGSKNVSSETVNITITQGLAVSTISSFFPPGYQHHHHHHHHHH
Experimental: (§2) Qiagen anti-polyhistidine antibody (Cat No. 34670) was immobilised on CM5 biosensor chip using standard NHS/EDC activation, the antibody was diluted to 50 ug/ml in acetate pH4.0 buffer and passed over the activated surface for 20 minutes at 5 ul/minute, the surface was then blocked with ethanolamine. Prior to use the chip was conditioned by performing several regeneration steps using 100 mM phosphoric acid.
(§3) For analysis of the interaction of the FcγRIIIa with various antibody constructs, the poly-histidine tagged receptors were captured to around 20 RU's. […] Regeneration was carried out using 100 mM phosphoric acid following each antibody/buffer injection. The run was carried out using HBS-EP buffer and carried out at 25° C. on a T100 Biacore machine. The data was analysed using the analysis software inherent to the machine using the 1:1 and Bivalent models.

[3] = biological target: T3, His-tagged FcγRIIIa (V variant) extracellular domain (Heterogeneously glycosylated.); assay: as above
T3 construct: also called FcγRIIIa (Val); FcγRIIIa (Val variant)
T3 sequence (chain, as listed by the source mutant limits assumed): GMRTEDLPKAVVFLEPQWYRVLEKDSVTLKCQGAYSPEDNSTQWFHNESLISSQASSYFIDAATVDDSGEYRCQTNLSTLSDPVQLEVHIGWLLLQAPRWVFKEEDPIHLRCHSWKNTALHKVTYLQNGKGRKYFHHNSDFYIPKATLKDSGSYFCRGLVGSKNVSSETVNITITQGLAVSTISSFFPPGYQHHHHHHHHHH
Experimental: as §2, §3

[4] = biological target: T2, His-tagged FcγRIIIa (F variant) …; assay: Biacore T100, His-tagged FcγRIIIa captured on anti-polyhistidine antibody, antibody injected 2-512 nM, 25°C, 1:1 model
Experimental: as §2, §3

[5] = biological target: T3, His-tagged FcγRIIIa (V variant) …; assay: as above
Experimental: as §2, §3

[6] = biological target: T1, Cynomolgus macaque monkey IGF-1R-Fc …; assay: binding ELISA: plate coated with recombinant cynomolgus macaque IGF-1R-Fc, antibody titrated, anti-human kappa light chain-HRP detection, OD 490nm
Experimental: as §1

T1 sequence (chain, as listed by the source limits assumed): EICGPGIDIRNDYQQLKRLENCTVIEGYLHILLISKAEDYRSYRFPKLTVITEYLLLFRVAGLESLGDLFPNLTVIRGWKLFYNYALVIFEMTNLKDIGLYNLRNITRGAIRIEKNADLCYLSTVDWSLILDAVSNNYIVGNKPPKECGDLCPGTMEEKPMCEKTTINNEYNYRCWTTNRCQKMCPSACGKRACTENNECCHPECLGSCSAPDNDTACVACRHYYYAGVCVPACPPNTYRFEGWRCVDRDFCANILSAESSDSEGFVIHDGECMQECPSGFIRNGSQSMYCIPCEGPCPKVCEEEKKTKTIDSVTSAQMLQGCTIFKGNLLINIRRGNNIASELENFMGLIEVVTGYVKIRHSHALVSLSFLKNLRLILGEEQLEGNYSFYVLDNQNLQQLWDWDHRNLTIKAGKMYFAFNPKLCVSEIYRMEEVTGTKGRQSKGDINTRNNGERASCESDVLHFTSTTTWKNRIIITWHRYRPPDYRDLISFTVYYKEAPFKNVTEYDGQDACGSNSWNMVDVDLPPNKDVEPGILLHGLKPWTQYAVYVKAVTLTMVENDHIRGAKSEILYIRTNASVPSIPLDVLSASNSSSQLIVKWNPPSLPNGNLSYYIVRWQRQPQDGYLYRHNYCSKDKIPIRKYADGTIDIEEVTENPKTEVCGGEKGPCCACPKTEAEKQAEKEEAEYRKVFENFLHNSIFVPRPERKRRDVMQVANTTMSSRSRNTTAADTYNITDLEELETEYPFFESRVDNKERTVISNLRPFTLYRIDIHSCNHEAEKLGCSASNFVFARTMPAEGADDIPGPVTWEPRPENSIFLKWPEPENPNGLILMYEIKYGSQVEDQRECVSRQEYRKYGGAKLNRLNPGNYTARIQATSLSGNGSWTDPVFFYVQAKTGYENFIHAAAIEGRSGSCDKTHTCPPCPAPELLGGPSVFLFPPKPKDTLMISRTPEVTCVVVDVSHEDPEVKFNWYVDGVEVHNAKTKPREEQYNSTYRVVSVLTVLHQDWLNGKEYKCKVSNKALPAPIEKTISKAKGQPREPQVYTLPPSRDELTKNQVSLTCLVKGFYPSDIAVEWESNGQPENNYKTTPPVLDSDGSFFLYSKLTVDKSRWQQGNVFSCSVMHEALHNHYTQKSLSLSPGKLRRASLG

Kd [2]	Kd [3]	Kd [4]	Kd [5]	binding result [6]	Binder	also measured
75.6 nM	74.1 nM	20.7 nM	5.9 nM	–	CD20-B (anti-CD20 IgG1, wild type constant region, FUT8 deleted CHO DG44) (antibody, The Fc N-glycan is expected to lack fucose (host: FUT8 deleted CHO DG44). The letters cannot carry this.) heavy: not shown light: QIVLSQSPAILSASPGEKVTMTCRASSSVSYIHWFQQKPGSSPKPWIYATSNLASGVPVRFSGSGSGTSYSLTISRVEAEDAATYYCQQWTSNPPTFGGGTKLEIKRTVAAPSVFIFPPSDEQLKSGTASVVCLLNNFYPREAKVQWKVDNALQSGNSQESVTEQDSKDSTYSLSSTLTLSKADYEKHKVYACEVTHQGLSSPVTKSFNRGEC	–
78.2 nM	274 nM	–	39.5 nM	–	CD20-A (anti-CD20 IgG1, wild type constant region, CHO-E1a) (antibody) heavy: not shown light: QIVLSQSPAILSASPGEKVTMTCRASSSVSYIHWFQQKPGSSPKPWIYATSNLASGVPVRFSGSGSGTSYSLTISRVEAEDAATYYCQQWTSNPPTFGGGTKLEIKRTVAAPSVFIFPPSDEQLKSGTASVVCLLNNFYPREAKVQWKVDNALQSGNSQESVTEQDSKDSTYSLSSTLTLSKADYEKHKVYACEVTHQGLSSPVTKSFNRGEC	–
88.9 nM	68.8 nM	14.9 nM	7.27 nM	–	IGF1R-G (anti-IGF-1R H0L0 IgG1 with S239D/I332E, CHO-E1a) (antibody, Campath leader left out) heavy: not shown light: DIVMTQSPLSLPVTPGEPASISCRSSQSIVQSNGDTYLEWYLQKPGQSPQLLIYRVSNRFSGVPDRFSGSGSGTDFTLKISRVEAEDVGVYYCFQGSHVPYTFGQGTKLEIKRTVAAPSVFIFPPSDEQLKSGTASVVCLLNNFYPREAKVQWKVDNALQSGNSQESVTEQDSKDSTYSLSSTLTLSKADYEKHKVYACEVTHQGLSSPVTKSFNRGEC	–
51.7 nM	2.7 nM	1.11 nM	0.832 nM	–	IGF1R-H (anti-IGF-1R H0L0 IgG1 with S239D/I332E, FUT8 deleted CHO DG44) (antibody, N-glycan from FUT8 deleted CHO DG44 host (glycoengineered), Same chains as IGF1R-G; differs by the host cell line; Campath leader left out) heavy: not shown light: DIVMTQSPLSLPVTPGEPASISCRSSQSIVQSNGDTYLEWYLQKPGQSPQLLIYRVSNRFSGVPDRFSGSGSGTDFTLKISRVEAEDVGVYYCFQGSHVPYTFGQGTKLEIKRTVAAPSVFIFPPSDEQLKSGTASVVCLLNNFYPREAKVQWKVDNALQSGNSQESVTEQDSKDSTYSLSSTLTLSKADYEKHKVYACEVTHQGLSSPVTKSFNRGEC	–
–	–	–	–	binds	H0L0 IgG1m(AA) (antibody) heavy: not shown light: DIVMTQSPLSLPVTPGEPASISCRSSQSIVQSNGDTYLEWYLQKPGQSPQLLIYRVSNRFSGVPDRFSGSGSGTDFTLKISRVEAEDVGVYYCFQGSHVPYTFGQGTKLEIKRTVAAPSVFIFPPSDEQLKSGTASVVCLLNNFYPREAKVQWKVDNALQSGNSQESVTEQDSKDSTYSLSSTLTLSKADYEKHKVYACEVTHQGLSSPVTKSFNRGEC	–

Continued, binder first:

Binder	Kd [2]	Kd [3]	Kd [4]	Kd [5]	binding result [6]	also measured
6E11 murine monoclonal antibody (antibody, V domains shown, Murine hybridoma antibody; Constant regions are murine IgG1/K or IgG2b/K; also called 6E11 parental; 6E11 mouse parental antibody) VH: EVQLQQSGPELVKPGASVRISCKASGYAFTDYYMNWVKQSHGKSLEWVANINPNNGGTNYNQKFKDKATLTVDKSSNTAYMELRSLTSEDTAVYYCARWILYYGRSKWYFDVWGTGTTVTVSS VL: DVLMTQTPLSLPVSLGDHASISCRSSQSIVQSNGDTYLEWYLQKPGQSPKLLIYRISNRFSGVPDRFSGSGSGTDFTLKISRVEAEDLGVYYCFQGSHVPYTFGGGTKLEIKR	–	–	–	–	–	EC50 (read off the curve) [1]: ~0.04 µg/mL
5G4 murine monoclonal antibody (antibody, V domains shown, Murine hybridoma antibody; murine constant regions not specified) VH: EVQLQQSGPELVKPGASVKISCKASGYAFTDYYMNWVKQTHGRSLEWMANINPNTGGTNYNQKFRGKATLTVDKSSTTAYMELRSLTSEDSAVYYCARWILYYGSSRWYFDVWGTGTTVTVSS VL: DVLMTQTPLSLPVSLGDQASISCRSSQTIVHSNGNTYLEWYLQKPGQSPKLLIYKVSNRFSGVPDRFSGSGSGTDFTLKISRVEAEDLGIYYCFQGSHVPYTFGGGTKLEIKR	–	–	–	–	–	EC50 (read off the curve) [1]: ~0.1 µg/mL
15D9 murine monoclonal antibody (antibody, V domains shown, Murine hybridoma antibody; murine constant regions not specified) VH: EVQLQQSGPELVKPGASVKISCKASGYAFTDYYMNWVKQSHGKSLEWMANINPNTGGTNYNQKFTGKATLTVDKSSTTAYMELRSLTSEDSAVYYCTRWILYYGSSKWYFDVWGTGTTVTVSS VL: DVLMTQTPLSLPVSLGDQASISCRSSQTIVHSNGNTYLEWYLQKPGQSPKLLIYRVSYRFSGVPDRFSGSGSGTDFTLKISRLEAEDLGIYYCFQGSHVPYTFGGGTKLEIKR	–	–	–	–	–	binding result [1]: binds
H0L0 humanised antibody (wild type human IgG1) (antibody) heavy: not shown light: DIVMTQSPLSLPVTPGEPASISCRSSQSIVQSNGDTYLEWYLQKPGQSPQLLIYRVSNRFSGVPDRFSGSGSGTDFTLKISRVEAEDVGVYYCFQGSHVPYTFGQGTKLEIKRTVAAPSVFIFPPSDEQLKSGTASVVCLLNNFYPREAKVQWKVDNALQSGNSQESVTEQDSKDSTYSLSSTLTLSKADYEKHKVYACEVTHQGLSSPVTKSFNRGEC	–	–	–	–	binds	–
IGF1R-F (anti-IGF-1R H0L0 IgG1, wild type constant region, FUT8 deleted CHO DG44) (antibody, N-glycan fucose negative (all oligosaccharide species obtained from the sample are fucose negative), Same chains as IGF1R-E; differs by the host cell line; Campath leader left out) heavy: not shown light: DIVMTQSPLSLPVTPGEPASISCRSSQSIVQSNGDTYLEWYLQKPGQSPQLLIYRVSNRFSGVPDRFSGSGSGTDFTLKISRVEAEDVGVYYCFQGSHVPYTFGQGTKLEIKRTVAAPSVFIFPPSDEQLKSGTASVVCLLNNFYPREAKVQWKVDNALQSGNSQESVTEQDSKDSTYSLSSTLTLSKADYEKHKVYACEVTHQGLSSPVTKSFNRGEC	131 nM	146 nM	59.6 nM	12.1 nM	–	–
H1L0 IgG1m(AA) (antibody, also called H10L0 IgG1m(AA) (as misprinted in several captions)) heavy: not shown light: DIVMTQSPLSLPVTPGEPASISCRSSQSIVQSNGDTYLEWYLQKPGQSPQLLIYRVSNRFSGVPDRFSGSGSGTDFTLKISRVEAEDVGVYYCFQGSHVPYTFGQGTKLEIKRTVAAPSVFIFPPSDEQLKSGTASVVCLLNNFYPREAKVQWKVDNALQSGNSQESVTEQDSKDSTYSLSSTLTLSKADYEKHKVYACEVTHQGLSSPVTKSFNRGEC	–	–	–	–	binds	–
H1L0 humanised antibody (wild type human IgG1) (antibody) heavy: not shown light: DIVMTQSPLSLPVTPGEPASISCRSSQSIVQSNGDTYLEWYLQKPGQSPQLLIYRVSNRFSGVPDRFSGSGSGTDFTLKISRVEAEDVGVYYCFQGSHVPYTFGQGTKLEIKRTVAAPSVFIFPPSDEQLKSGTASVVCLLNNFYPREAKVQWKVDNALQSGNSQESVTEQDSKDSTYSLSSTLTLSKADYEKHKVYACEVTHQGLSSPVTKSFNRGEC	–	–	–	–	binds	–
